Laboratory results reported in US20110165161A1, “ANTI-EPCAM ANTIBODIES THAT INDUCE APOPTOSIS OF CANCER CELLS AND METHODS USING SAME” (priority 2009, published 2011).

What was measured:
[1] = target: T1, human EpCAM (epithelial cell adhesion/activating molecule) (human, UniProt P16422 24-314); assay: flow cytometry, CHO/EpCAM cells, 0.1 µg/ml antibody
T1 construct: also called hEpCAM; CHO/EpCAM
T1 sequence: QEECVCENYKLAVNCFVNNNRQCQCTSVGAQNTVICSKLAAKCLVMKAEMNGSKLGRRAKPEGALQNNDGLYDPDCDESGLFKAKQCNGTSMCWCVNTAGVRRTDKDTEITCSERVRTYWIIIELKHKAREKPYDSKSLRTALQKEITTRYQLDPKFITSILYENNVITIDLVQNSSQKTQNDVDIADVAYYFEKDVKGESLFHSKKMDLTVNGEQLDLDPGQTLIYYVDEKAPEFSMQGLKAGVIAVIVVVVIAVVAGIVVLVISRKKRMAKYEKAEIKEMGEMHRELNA
Protocol: A 300× dilution of human cell hyper-immune serum (HPS 300×) was used as binding positive control for both cell lines here. After 1 hr incubation at 4° C., cells were washed twice with 200 μl FACS buffer (1×PBS containing 1% FBS), stained with 100 μl of 1 μg/ml goat-anti-mouse IgG-PE (Southern Biotech, Cat. No. 1032-09) in FACS buffer and then incubated at 4° C. for 30 min. Cells were washed thrice with FACS buffer and analyzed by flow cytometry (BD LSR, BD Life Sciences).

[2] = target: T1, human EpCAM (epithelial cell …); assay: cell-based or functional assay
[3] = target: T2, EGFI-Cr1 wild type (first EGF-like repeat of human EpCAM fused to the constant region of human immunoglobulin … (human, UniProt P01857-1 99-330 = IgG part)); assay: direct ELISA, coated EGFI-Cr1 fusion, 0.1 µg/ml antibody
T2 construct: cDNA covered aa 1-63; Expressed in COS-7 cells; also called WT; EpCAM EGF-1 fusion protein WT
Protocol: (§1) A direct ELISA was used for testing the reactivity of anti-EpCAM antibodies toward variant EpCAM mutants. Briefly, purified EpCAM EGF-1 fusion proteins (WT, Q24A, E25K, E26D, A35T, N37R, F39A, V40E, N41A, N42E, N43A, R44G, Q45A, Q47A or T49A) and irrelevant control (CEA-Cr1) were pre-diluted to 0.5 μg/ml in coating buffer (8.4 g NaHCO₃, 3.4 g Na₂CO₃ in 1 L H₂O, pH 9.5) and aliquoted (100 μl/well) into 96-well plates. […] Plates were then washed 3 times with PBST followed by the addition of the enzyme substrate TMB (BD Biosciences, Cat. No. 555214). […] The optical densities at 450 nm wavelength were measured on an ELISA plate reader.

[4] = target: T3, EGFI-Cr1 E25K (human, UniProt P16422 24-63); assay: as above
T3 construct: not shown: The fused constant region of human immunoglobulin gamma 1 heavy chain (Cr1)
T3 chain: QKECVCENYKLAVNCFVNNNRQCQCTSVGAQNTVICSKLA
Protocol: as §1

[5] = target: T4, EGFI-Cr1 N41A (human, UniProt P16422 24-63); assay: as above
T4 construct: not shown: The fused constant region of human immunoglobulin gamma 1 heavy chain (Cr1)
T4 chain: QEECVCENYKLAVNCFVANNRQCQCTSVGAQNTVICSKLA
Protocol: as §1

[6] = target: T5, EGFI-Cr1 V40E (human); assay: as above
T5 construct: not shown: The fused constant region of human immunoglobulin gamma 1 heavy chain (Cr1)
T5 chain: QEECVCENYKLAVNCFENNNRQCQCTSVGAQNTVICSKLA
Protocol: as §1

[7] = target: T6, EGFI-Cr1 T49A (human, UniProt P16422 24-63); assay: as above
T6 construct: not shown: the constant region of human immunoglobulin gamma 1 heavy chain (Cr1) fused at the C-terminus
T6 chain: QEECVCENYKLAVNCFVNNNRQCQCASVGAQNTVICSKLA
Protocol: as §1

[8] = target: T7, EGFI-Cr1 Q24A (human, UniProt P16422 25-63); assay: as above
T7 construct: not shown: The fused constant region of human immunoglobulin gamma 1 heavy chain (Cr1)
T7 chain: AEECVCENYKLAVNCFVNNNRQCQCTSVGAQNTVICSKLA
Protocol: as §1

[9] = target: T8, EGFI-Cr1 F39A (human, UniProt P16422 24-63); assay: as above
T8 construct: not shown: The fused constant region of human immunoglobulin gamma 1 heavy chain (Cr1)
T8 chain: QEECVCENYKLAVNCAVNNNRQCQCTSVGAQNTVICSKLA
Protocol: as §1

[10] = target: T9, EGFI-Cr1 N37R (human); assay: as above
T9 construct: not shown: The fused constant region of human immunoglobulin gamma 1 heavy chain (Cr1)
T9 chain: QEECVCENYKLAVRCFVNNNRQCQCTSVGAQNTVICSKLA
Protocol: as §1

[11] = target: T10, EGFI-Cr1 N43A (human, UniProt P16422 24-63); assay: as above
T10 construct: not shown: the constant region of human immunoglobulin gamma 1 heavy chain (Cr1) fused at the C-terminus
T10 chain: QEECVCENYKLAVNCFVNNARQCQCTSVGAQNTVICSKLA
Protocol: as §1

[12] = target: T11, EGFI-Cr1 Q47A (human, UniProt P16422 24-63); assay: as above
T11 construct: not shown: the constant region of human immunoglobulin gamma 1 heavy chain (Cr1) fused at the C-terminus
T11 chain: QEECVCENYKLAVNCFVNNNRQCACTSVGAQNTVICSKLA
Protocol: as §1

[13] = target: T12, EGFI-Cr1 N42E (human, UniProt P16422 24-63); assay: as above
T12 construct: not shown: the constant region of human immunoglobulin gamma 1 heavy chain (Cr1) fused at the C-terminus
T12 chain: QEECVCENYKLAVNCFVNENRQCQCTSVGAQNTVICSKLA
Protocol: as §1

[14] = target: T13, EGFI-Cr1 R44G (human, UniProt P16422 24-63); assay: as above
T13 construct: not shown: the constant region of human immunoglobulin gamma 1 heavy chain (Cr1) fused at the C-terminus
T13 chain: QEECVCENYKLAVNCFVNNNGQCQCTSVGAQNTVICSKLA
Protocol: as §1

[15] = target: T14, EGFI-Cr1 Q45A (human, UniProt P16422 24-63); assay: as above
T14 construct: not shown: the constant region of human immunoglobulin gamma 1 heavy chain (Cr1) fused at the C-terminus
T14 chain: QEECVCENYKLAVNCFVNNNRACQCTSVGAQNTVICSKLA
Protocol: as §1

[16] = target: T15, EGFI-Cr1 E26D (human, UniProt P16422 24-63); assay: as above
T15 construct: not shown: The fused constant region of human immunoglobulin gamma 1 heavy chain (Cr1)
T15 chain: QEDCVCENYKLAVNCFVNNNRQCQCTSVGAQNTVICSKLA
Protocol: as §1

[17] = target: T16, EGFI-Cr1 A35T (human, UniProt P16422 24-63); assay: as above
T16 construct: not shown: The fused constant region of human immunoglobulin gamma 1 heavy chain (Cr1)
T16 chain: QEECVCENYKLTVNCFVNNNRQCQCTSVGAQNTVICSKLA
Protocol: as §1

[18] = target: T1, human EpCAM (epithelial cell …); assay: cell-based or functional assay; remark: listed apart in the source

B1: murine monoclonal antibody 2D11 (antibody, mouse IgG1, V domains shown)
VH: QIQLVQSGPELKKPGETVKISCKASGYTFTNYGMNWVKQAPGKGLKWMGWINTNTGEATYVEEFKGRVVFSLETSASTAYLQINNLKNEDTATYFCARIGYVWYFDVWGAGTTVTVSS
VL: DIVMSQSPSSLAVSAGEKVTMSCKSSQSLFSSRTRKNYLAWYQQKPGQSPKLLIYWASTRESGVPDRFTGSGSGTDFTLTINSVQAEDLAVYYCKHSNNLFTFGSGTKLEIKR
notes: Mouse IgG1, kappa, from hybridoma; also called m322-2D11.19
[1]
  MFI: 3720 MFI
[2]
  % of Annexin V + PI staining (untreated background subtracted), NCI-H358, 10 µg/ml mAb, Exp1: 41%
  % of Annexin V + PI staining (untreated background subtracted), NCI-H358, 10 µg/ml mAb, Exp2: 32%
  % of Annexin V + PI staining (untreated background subtracted), NCI-H358, 10 µg/ml mAb, Exp3: 47%
  % of Annexin V + PI staining (untreated background subtracted), NCI-H358, 10 µg/ml mAb, Exp4: 44%
  % of Annexin V + PI staining (untreated background subtracted), NCI-H358, 10 µg/ml mAb, Exp5: 33%
[3]
  relative binding activity (% of WT): 100%
[4]
  relative binding activity (% of WT): 93%
[5]
  relative binding activity (% of WT): 12%
[6]
  relative binding activity (% of WT): 93%
[7]
  relative binding activity (% of WT): 95%
[8]
  relative binding activity (% of WT): 99%
[9]
  relative binding activity (% of WT): 97%
[10]
  relative binding activity (% of WT): 94%
[11]
  relative binding activity (% of WT): 5%
[12]
  relative binding activity (% of WT): 96%
[13]
  relative binding activity (% of WT): 58%
[14]
  relative binding activity (% of WT): 7%
[15]
  relative binding activity (% of WT): 89%
[16]
  relative binding activity (% of WT): 97%
[17]
  relative binding activity (% of WT): 95%
[18]
  % Annexin V/PI-positive cells, DLD-1, 1.0 µg/ml mAb: 18%
  % Annexin V/PI-positive cells, DLD-1, 3.0 µg/ml mAb: 41%
  % Annexin V/PI-positive cells, DLD-1, 10 µg/ml mAb: 48%
  % Annexin V/PI-positive cells, FaDu, 1.0 µg/ml mAb: 34%
  % Annexin V/PI-positive cells, FaDu, 3.0 µg/ml mAb: 45%
  % Annexin V/PI-positive cells, FaDu, 10 µg/ml mAb: 46%
  % Annexin V/PI-positive cells, LNCaP, 1.0 µg/ml mAb: 40%
  % Annexin V/PI-positive cells, LNCaP, 3.0 µg/ml mAb: 39%
  % Annexin V/PI-positive cells, LNCaP, 10 µg/ml mAb: 40%
  % Annexin V/PI-positive cells, NCI-H520, 1.0 µg/ml mAb: 41%
  % Annexin V/PI-positive cells, NCI-H520, 3.0 µg/ml mAb: 44%
  % Annexin V/PI-positive cells, NCI-H520, 10 µg/ml mAb: 52%
  % Annexin V/PI-positive cells, NCI-N87, 1.0 µg/ml mAb: 45%
  % Annexin V/PI-positive cells, NCI-N87, 3.0 µg/ml mAb: 48%
  % Annexin V/PI-positive cells, NCI-N87, 10 µg/ml mAb: 51%
  % Annexin V/PI-positive cells, NIH:OVCAR-3, 1.0 µg/ml mAb: 43%
  % Annexin V/PI-positive cells, NIH:OVCAR-3, 3.0 µg/ml mAb: 55%
  % Annexin V/PI-positive cells, NIH:OVCAR-3, 10 µg/ml mAb: 56%
  % Annexin V/PI-positive cells, T-47D, 1.0 µg/ml mAb: 36%
  % Annexin V/PI-positive cells, T-47D, 3.0 µg/ml mAb: 48%
  % Annexin V/PI-positive cells, T-47D, 10 µg/ml mAb: 45%
